In IntAct's records for PubMed 20148946:

B1: Putative E3 ubiquitin-protein ligase UNKL (Homo sapiens), Q9H9P5 (parent)
chain: MPSVSKAAAAALSGSPPQTEKPTHYRYLKEFRTEQCPLFSQHKCAQHRPFTCFHWHFLNQRRRRPLRRRDGTFNYSPDVYCSKYNEATGVCPDGDECPYLHRTTGDTERKYHLRYYKTGTCIHETDARGHCVKNGLHCAFAHGPLDLRPPVCDVRELQAQEALQNGQLGGGEGVPDLQPGVLASQAMIEKILSEDPRWQDANFVLGSYKTEQCPKPPRLCRQGYACPHYHNSRDRRRNPRRFQYRSTPCPSVKHGDEWGEPSRCDGGDGCQYCHSRTEQQFHPESTKCNDMRQTGYCPRGPFCAFAHVEKSLGMVNEWGCHDLHLTSPSSTGSGQPGNAKRRDSPAEGGPRGSEQDSKQNHLAVFAAVHPPAPSVSSSVASSLASSAGSGSSSPTALPAPPARALPLGPASSTVEAVLGSALDLHLSNVNIASLEKDLEEQDGHDLGAAGPRSLAGSAPVAIPGSLPRAPSLHSPSSASTSPLGSLSQPLPGPVGSSAMTPPQQPPPLRSEPGTLGSAASSYSPLGLNGVPGSIWDFVSGSFSPSPSPILSAGPPSSSSASPNGAELARVRRQLDEAKRKIRQWEESWQQVKQVCDAWQREAQEAKERARVADSDRQLALQKKEEVEAQVIFQLRAKQCVACRERAHGAVLRPCQHHILCEPCAATAPECPYCKGQPLQW

Variants of: B1
Details: with ubi4p_yeast UBI4, P0CG63
ubi4p_yeast UBI4, P0CG63, sequence (P0CG63 whole entry): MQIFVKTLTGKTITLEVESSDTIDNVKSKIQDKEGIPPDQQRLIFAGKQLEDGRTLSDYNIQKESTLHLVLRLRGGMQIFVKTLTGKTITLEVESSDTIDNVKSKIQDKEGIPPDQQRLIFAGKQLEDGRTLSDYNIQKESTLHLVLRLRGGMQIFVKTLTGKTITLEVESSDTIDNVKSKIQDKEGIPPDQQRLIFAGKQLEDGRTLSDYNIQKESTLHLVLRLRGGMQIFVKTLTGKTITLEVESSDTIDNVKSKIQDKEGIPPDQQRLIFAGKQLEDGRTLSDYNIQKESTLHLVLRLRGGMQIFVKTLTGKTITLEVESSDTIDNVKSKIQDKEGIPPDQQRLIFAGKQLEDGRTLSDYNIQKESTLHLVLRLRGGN

effect of a mutation on the interaction	Variant
decreasing interaction	C639A
decreasing interaction	C670A
